Key:
Assay in all cases: pull-down
SmD1/D2 = SmD1/D2 (human, UniProt P62314;P62316)
SmF/E/G = SmF/E/G (human, UniProt P62306;P62304;P62308)
Lsm6/5/7 = Lsm6/5/7 (human, UniProt P62312;Q9Y4Y9;Q9UK45)
Sequence of Lsm6/5/7 (Q9Y4Y9 whole entry, chain 2 of 2): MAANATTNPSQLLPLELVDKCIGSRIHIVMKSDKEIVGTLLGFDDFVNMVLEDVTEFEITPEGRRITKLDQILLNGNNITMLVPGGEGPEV
Sequence of Lsm6/5/7 (Q9UK45 whole entry, chain 3 of 2): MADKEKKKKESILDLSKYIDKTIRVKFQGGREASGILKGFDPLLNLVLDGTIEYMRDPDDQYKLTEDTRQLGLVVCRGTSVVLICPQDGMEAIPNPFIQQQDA

B1: His-tagged Gemin2/MBP-SMN(26-62) (complex)
chain 1: FDPSVPPRTPQEYLRRVQIEAAQCPDVVVAQIDPKKLKRKQSVNISLSGCQPAPEGYSPTLQWQQQQVAQFSTVRQNVNKHRSHWKSQQLDSNVTMPKSEDEEGWKKFCLGEKLCADGAVGPATNESPGIDYVQIGFPPLLSIVSRMNQATVTSVLEYLSNWFGERDFTPELGRWLYALLACLEKPLLPEAHSLIRQLARRCSEVRLLVDSKDDERVPALNLLICLVSRYFDQRDLADEPS
chain 2: GQSDDSDIWDDTALIKAYDKAVASFKHALKNGDICET
- binding result (SmD1/D2): binds
- binding result (SmF/E/G): binds

B2: Lsm2/3 (complex)
chain 1: MLFYSFFKSLVGKDVVVELKNDLSICGTLHSVDQYLNIKLTDISVTDPEKYPHMLSVKNCFIRGSVVRYVQLPADEVDTQLLQDAARKEALQQKQ
chain 2: not shown
- binding result (Lsm6/5/7): binds
